Experiments:
[1] = molecular target: hybridoma 2.03; experiment: competition ELISA; signal of 2.03 on plate-bound Pep2-0 (competitor) with this free peptide; low = inhibited
[2] = molecular target: hybridoma 2.11; experiment: competition ELISA; signal of 2.11 on plate-bound Pep2-0 (competitor) with this free peptide; low = inhibited

Binder | Maximum Reactivity [1] | Maximum Reactivity [2]
Ac-HSLFHPEDTG-biotin [Pep1-1] | 0.382 | 1.48
Ac-SLFHPEDTGQ-biotin [Pep1-2] | 0.329 | 1.49

Reference: patent US8097425
